According to US20140212431A1 (Genentech, published 2014):

How the values were obtained:
[1] = molecular target: T1, recombinant human PCSK9 with a histidine (His)8 C-terminal tag (human, UniProt Q8NBP7 31-692, biotinylated in vitro (EZ-link Sulfo-NHS-biotinylation kit) where the assay names biotinylated PCSK9); experiment: SPR (Biacore 3000), EGF-Fc captured by anti-human Fc, PCSK9 injected, 1 mM CaCl2; SPR, 1 mM Ca^2+
T1 construct: also called rPCSK9; biotinylated PCSK9

[2] = molecular target: T1, recombinant human PCSK9 with a …; experiment: cell-based or functional assay
[3] = molecular target: T1, recombinant human PCSK9 with a …; experiment: biolayer interferometry (Octet RED 384), EGF-Fc on Fc biosensor, PCSK9 0-500 nM, 1 mM CaCl2, steady state fit; biolayer interferometry, steady state, 1 mM CaCl2

B1: EGFwt-Fc fusion protein (Fc fusion)
chain: not shown
notes: A single EGF-Fc protein contains two EGF domains; also called EGF-Fc (WT); EGF(A)-Fc; not shown: Fc domain of human IgG1 (C222-K443)
For B1, the Kd [1] was 935 nM, the “EC50: concentration that restored LDLR levels on the HepG2 cell surface to 50% of control” value [2] was 11000 nM and the Kd [3] was 900 nM.
